2 molecules from article PMC9407403 (Proceedings of the National Academy of Sciences of the …, 2022) can be followed below.

This experiment concerns the target T1, SARS-CoV-2 receptor-binding domain (RBD), recombinant antigen (SARS-CoV-2, UniProt P0DTC2).
T1 construct: source: bought: Wantai BioPharm (microplates precoated with recombinant RBD)
The experiment in a line: ELISA. Particulars: both partners purified.

B1: neutralizing antibody X10 (mouse monoclonal antibody) (antibody, V domains shown)
VH: EVQLQQSGPELVKPGASVKISCKTSGYTFTEYTLHWVKQSHGKSLEWIGGFDPNFGGATYNLKFEDKATLTVDKSSNTAYMELRSLTSEDSAVFYCARGDYGTSYAYFDFWGQGTTLTVSS
VL: DIVLTQSPASLAVSLGQRAAISCRASQSVSTSSHNYVHWYQQRPGQPPKLLIKYASNLECGVPARFSGSGSGTDFTLNIHPVEEEDSAAYYCQHSWEIPYTFGGGTKLEIK
notes: also called nAb X10; cluster 2 representative; source: mouse hybridoma, ascitic fluid, purified (protein A agarose)
As to B1, the binding result is listed as “binds”.

B2: neutralizing antibody X17 (mouse monoclonal antibody) (antibody, V domains shown)
VH: QVQLQQSGAELARPGASVKLSCKASGYTFTFYWMQWLKQRPGQGLEWIGAIYPGDGDTRYTQRFKDKATLTADKSSSTAYIQLSSLASEDSAVYYCAGGEYDNYGFDYWGQGTTLTVSS
VL: DIQMTQTTSSLSASLGDRVTISCRASQDISNYLNWYQQKPDGTVKLLIYYTSRLHSGVPSRFSGSGSGTDYSLTISNLEQEDIATYFCQQGTTLPYTFGGGTKLEIK
notes: also called nAb X17; cluster 1 representative; source: mouse hybridoma, ascitic fluid, purified (protein A agarose)
Regarding B2, the binding result is recorded as “binds”.
